Reference: US20220204580A1 (AstraZeneca / MedImmune, published 2022)
Numbered stars: 1 amine (or outer) side, 2 acyl side, 3 side chain; on linkers, the order of the positions; unused ones are H or OH. Bridge positions count the residues as written; N and C are the ends. Square brackets hold non-standard residues; d marks the D form. Side chains are listed from the residue outwards. Ends that are not written are not given here. * marks the point of attachment. C18 diacid = O=C(O)CCCCCCCCCCCCCCCCC(=O)*; γGlu = O=C(O)[C@H](CCC(=O)[*:2])N[*:1]; Aib = CC(C)(N)C(=O)O

T1: human calcitonin receptor (human, UniProt P30988 25-474)
T1 sequence (looked up): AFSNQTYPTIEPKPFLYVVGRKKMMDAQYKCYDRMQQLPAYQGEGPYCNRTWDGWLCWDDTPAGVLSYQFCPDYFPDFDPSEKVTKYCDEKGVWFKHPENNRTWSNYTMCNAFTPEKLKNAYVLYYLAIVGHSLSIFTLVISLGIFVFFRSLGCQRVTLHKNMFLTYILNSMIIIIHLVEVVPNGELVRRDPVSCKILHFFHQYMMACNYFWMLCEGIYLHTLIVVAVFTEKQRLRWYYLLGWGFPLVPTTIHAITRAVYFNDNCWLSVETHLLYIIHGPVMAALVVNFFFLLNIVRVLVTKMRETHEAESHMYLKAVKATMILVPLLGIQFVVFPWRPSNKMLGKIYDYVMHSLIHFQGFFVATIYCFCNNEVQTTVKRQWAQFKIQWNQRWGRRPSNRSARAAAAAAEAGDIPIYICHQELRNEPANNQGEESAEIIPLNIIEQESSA

T2: human amylin receptor (calcitonin receptor co-expressed with receptor activity modifying protein, RAMP3) (human, UniProt P30988 25-474; O60896 24-148)
T2 sequence (looked up) 1: T1 sequence (looked up)
T2 sequence (looked up) 2: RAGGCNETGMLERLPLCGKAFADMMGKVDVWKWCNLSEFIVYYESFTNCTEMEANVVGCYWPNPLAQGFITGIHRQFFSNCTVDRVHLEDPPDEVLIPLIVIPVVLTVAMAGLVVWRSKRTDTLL

B1: Peptide 89 (SEQ ID NO: 89) (peptide)
peptide: K([γGlu-γGlu-C18 diacid])CNTATCATQRLANFLVHSS[Aib]NFGPILPPT[Aib]VGSNTY-NH2
modifications: disulfide 2-7
B2: Peptide 87 (SEQ ID NO: 87) (peptide)
peptide: K([γGlu-C18 diacid])KCNTATCATQRLANFL[Aib]HSS[Aib]NFGPILPPTNVGSNTP-NH2
modifications: disulfide 3-8; N-terminus assumed
SMILES: CC[C@H](C)[C@H](NC(=O)[C@@H]1CCCN1C(=O)CNC(=O)[C@H](Cc1ccccc1)NC(=O)[C@H](CC(N)=O)NC(=O)C(C)(C)NC(=O)[C@H](CO)NC(=O)[C@H](CO)NC(=O)[C@H](Cc1c[nH]cn1)NC(=O)C(C)(C)NC(=O)[C@H](CC(C)C)NC(=O)[C@H](Cc1ccccc1)NC(=O)[C@H](CC(N)=O)NC(=O)[C@H](C)NC(=O)[C@H](CC(C)C)NC(=O)[C@H](CCCNC(=N)N)NC(=O)[C@H](CCC(N)=O)NC(=O)[C@@H](NC(=O)[C@H](C)NC(=O)[C@@H]1CSSC[C@H](NC(=O)[C@H](CCCCN)NC(=O)[C@@H](N)CCCCNC(=O)CC[C@H](NC(=O)CCCCCCCCCCCCCCCCC(=O)O)C(=O)O)C(=O)N[C@@H](CC(N)=O)C(=O)N[C@@H]([C@@H](C)O)C(=O)N[C@@H](C)C(=O)N[C@@H]([C@@H](C)O)C(=O)N1)[C@@H](C)O)C(=O)N[C@@H](CC(C)C)C(=O)N1CCC[C@H]1C(=O)N1CCC[C@H]1C(=O)N[C@H](C(=O)N[C@@H](CC(N)=O)C(=O)N[C@H](C(=O)NCC(=O)N[C@@H](CO)C(=O)N[C@@H](CC(N)=O)C(=O)N[C@H](C(=O)N1CCC[C@H]1C(N)=O)[C@@H](C)O)C(C)C)[C@@H](C)O
B3: Peptide 85 (SEQ ID NO: 85) (peptide)
peptide: K([γGlu-C18 diacid])KCNTATCATQRLANFLVHSS[Aib]NFGPILPPTNVGSNT[Aib]-NH2
modifications: disulfide 3-8; N-terminus assumed
SMILES: CC[C@H](C)[C@H](NC(=O)[C@@H]1CCCN1C(=O)CNC(=O)[C@H](Cc1ccccc1)NC(=O)[C@H](CC(N)=O)NC(=O)C(C)(C)NC(=O)[C@H](CO)NC(=O)[C@H](CO)NC(=O)[C@H](Cc1c[nH]cn1)NC(=O)[C@@H](NC(=O)[C@H](CC(C)C)NC(=O)[C@H](Cc1ccccc1)NC(=O)[C@H](CC(N)=O)NC(=O)[C@H](C)NC(=O)[C@H](CC(C)C)NC(=O)[C@H](CCCNC(=N)N)NC(=O)[C@H](CCC(N)=O)NC(=O)[C@@H](NC(=O)[C@H](C)NC(=O)[C@@H]1CSSC[C@H](NC(=O)[C@H](CCCCN)NC(=O)[C@@H](N)CCCCNC(=O)CC[C@H](NC(=O)CCCCCCCCCCCCCCCCC(=O)O)C(=O)O)C(=O)N[C@@H](CC(N)=O)C(=O)N[C@@H]([C@@H](C)O)C(=O)N[C@@H](C)C(=O)N[C@@H]([C@@H](C)O)C(=O)N1)[C@@H](C)O)C(C)C)C(=O)N[C@@H](CC(C)C)C(=O)N1CCC[C@H]1C(=O)N1CCC[C@H]1C(=O)N[C@H](C(=O)N[C@@H](CC(N)=O)C(=O)N[C@H](C(=O)NCC(=O)N[C@@H](CO)C(=O)N[C@@H](CC(N)=O)C(=O)N[C@H](C(=O)NC(C)(C)C(N)=O)[C@@H](C)O)C(C)C)[C@@H](C)O
B4: Peptide 84 (SEQ ID NO: 84) (peptide)
peptide: K([γGlu-C18 diacid])KCNTATCATQRLANFLVHSS[Aib]NFGPILPPTNVG[Aib]NTY-NH2
modifications: disulfide 3-8; N-terminus assumed
SMILES: CC[C@H](C)[C@H](NC(=O)[C@@H]1CCCN1C(=O)CNC(=O)[C@H](Cc1ccccc1)NC(=O)[C@H](CC(N)=O)NC(=O)C(C)(C)NC(=O)[C@H](CO)NC(=O)[C@H](CO)NC(=O)[C@H](Cc1c[nH]cn1)NC(=O)[C@@H](NC(=O)[C@H](CC(C)C)NC(=O)[C@H](Cc1ccccc1)NC(=O)[C@H](CC(N)=O)NC(=O)[C@H](C)NC(=O)[C@H](CC(C)C)NC(=O)[C@H](CCCNC(=N)N)NC(=O)[C@H](CCC(N)=O)NC(=O)[C@@H](NC(=O)[C@H](C)NC(=O)[C@@H]1CSSC[C@H](NC(=O)[C@H](CCCCN)NC(=O)[C@@H](N)CCCCNC(=O)CC[C@H](NC(=O)CCCCCCCCCCCCCCCCC(=O)O)C(=O)O)C(=O)N[C@@H](CC(N)=O)C(=O)N[C@@H]([C@@H](C)O)C(=O)N[C@@H](C)C(=O)N[C@@H]([C@@H](C)O)C(=O)N1)[C@@H](C)O)C(C)C)C(=O)N[C@@H](CC(C)C)C(=O)N1CCC[C@H]1C(=O)N1CCC[C@H]1C(=O)N[C@H](C(=O)N[C@@H](CC(N)=O)C(=O)N[C@H](C(=O)NCC(=O)NC(C)(C)C(=O)N[C@@H](CC(N)=O)C(=O)N[C@H](C(=O)N[C@@H](Cc1ccc(O)cc1)C(N)=O)[C@@H](C)O)C(C)C)[C@@H](C)O
B5: Peptide 88 (SEQ ID NO: 88) (peptide)
peptide: K([γGlu-C18 diacid])KCNTATCATQRLANFLVHSS[Aib]NFGPIL[Aib]PTNVGSNTY-NH2
modifications: disulfide 3-8; N-terminus assumed
SMILES: CC[C@H](C)[C@H](NC(=O)[C@@H]1CCCN1C(=O)CNC(=O)[C@H](Cc1ccccc1)NC(=O)[C@H](CC(N)=O)NC(=O)C(C)(C)NC(=O)[C@H](CO)NC(=O)[C@H](CO)NC(=O)[C@H](Cc1c[nH]cn1)NC(=O)[C@@H](NC(=O)[C@H](CC(C)C)NC(=O)[C@H](Cc1ccccc1)NC(=O)[C@H](CC(N)=O)NC(=O)[C@H](C)NC(=O)[C@H](CC(C)C)NC(=O)[C@H](CCCNC(=N)N)NC(=O)[C@H](CCC(N)=O)NC(=O)[C@@H](NC(=O)[C@H](C)NC(=O)[C@@H]1CSSC[C@H](NC(=O)[C@H](CCCCN)NC(=O)[C@@H](N)CCCCNC(=O)CC[C@H](NC(=O)CCCCCCCCCCCCCCCCC(=O)O)C(=O)O)C(=O)N[C@@H](CC(N)=O)C(=O)N[C@@H]([C@@H](C)O)C(=O)N[C@@H](C)C(=O)N[C@@H]([C@@H](C)O)C(=O)N1)[C@@H](C)O)C(C)C)C(=O)N[C@@H](CC(C)C)C(=O)NC(C)(C)C(=O)N1CCC[C@H]1C(=O)N[C@H](C(=O)N[C@@H](CC(N)=O)C(=O)N[C@H](C(=O)NCC(=O)N[C@@H](CO)C(=O)N[C@@H](CC(N)=O)C(=O)N[C@H](C(=O)N[C@@H](Cc1ccc(O)cc1)C(N)=O)[C@@H](C)O)C(C)C)[C@@H](C)O
B6: Peptide 86 (SEQ ID NO: 86) (peptide)
peptide: K([γGlu-C18 diacid])KCNTATCATQRLAHFL[Aib]HSS[Aib]NFGPILPPTEVGSNTY-NH2
modifications: disulfide 3-8; N-terminus assumed
SMILES: CC[C@H](C)[C@H](NC(=O)[C@@H]1CCCN1C(=O)CNC(=O)[C@H](Cc1ccccc1)NC(=O)[C@H](CC(N)=O)NC(=O)C(C)(C)NC(=O)[C@H](CO)NC(=O)[C@H](CO)NC(=O)[C@H](Cc1c[nH]cn1)NC(=O)C(C)(C)NC(=O)[C@H](CC(C)C)NC(=O)[C@H](Cc1ccccc1)NC(=O)[C@H](Cc1c[nH]cn1)NC(=O)[C@H](C)NC(=O)[C@H](CC(C)C)NC(=O)[C@H](CCCNC(=N)N)NC(=O)[C@H](CCC(N)=O)NC(=O)[C@@H](NC(=O)[C@H](C)NC(=O)[C@@H]1CSSC[C@H](NC(=O)[C@H](CCCCN)NC(=O)[C@@H](N)CCCCNC(=O)CC[C@H](NC(=O)CCCCCCCCCCCCCCCCC(=O)O)C(=O)O)C(=O)N[C@@H](CC(N)=O)C(=O)N[C@@H]([C@@H](C)O)C(=O)N[C@@H](C)C(=O)N[C@@H]([C@@H](C)O)C(=O)N1)[C@@H](C)O)C(=O)N[C@@H](CC(C)C)C(=O)N1CCC[C@H]1C(=O)N1CCC[C@H]1C(=O)N[C@H](C(=O)N[C@@H](CCC(=O)O)C(=O)N[C@H](C(=O)NCC(=O)N[C@@H](CO)C(=O)N[C@@H](CC(N)=O)C(=O)N[C@H](C(=O)N[C@@H](Cc1ccc(O)cc1)C(N)=O)[C@@H](C)O)C(C)C)[C@@H](C)O

The binders below were run against T1, human calcitonin receptor (assay: cell-based or functional assay).

Binder | EC50 (cAMP production) [nM]
B1 | 8.24
B2 | 0.074
B3 | 3.1
B4 | 0.401
B5 | 1.17
B6 | 0.311

The binders below were run against T2, human amylin receptor (calcitonin …) (assay: cell-based or functional assay).

Binder | EC50 (cAMP production) [nM] | Ratio (EC50 hCTR / EC50 hAMYR3)
B1 | 0.447 | 18
B2 | 0.071 | 1
B3 | 0.806 | 4
B4 | 0.118 | 3
B5 | 0.281 | 4
B6 | 0.119 | 3
